In US20230101835A1:

Target: plasma derived C3b (UniProt P01024)
Assay: cell-based or functional assay

UniProt P01024, sequence (P01024 749-1663 limits assumed, chain 1 of 2): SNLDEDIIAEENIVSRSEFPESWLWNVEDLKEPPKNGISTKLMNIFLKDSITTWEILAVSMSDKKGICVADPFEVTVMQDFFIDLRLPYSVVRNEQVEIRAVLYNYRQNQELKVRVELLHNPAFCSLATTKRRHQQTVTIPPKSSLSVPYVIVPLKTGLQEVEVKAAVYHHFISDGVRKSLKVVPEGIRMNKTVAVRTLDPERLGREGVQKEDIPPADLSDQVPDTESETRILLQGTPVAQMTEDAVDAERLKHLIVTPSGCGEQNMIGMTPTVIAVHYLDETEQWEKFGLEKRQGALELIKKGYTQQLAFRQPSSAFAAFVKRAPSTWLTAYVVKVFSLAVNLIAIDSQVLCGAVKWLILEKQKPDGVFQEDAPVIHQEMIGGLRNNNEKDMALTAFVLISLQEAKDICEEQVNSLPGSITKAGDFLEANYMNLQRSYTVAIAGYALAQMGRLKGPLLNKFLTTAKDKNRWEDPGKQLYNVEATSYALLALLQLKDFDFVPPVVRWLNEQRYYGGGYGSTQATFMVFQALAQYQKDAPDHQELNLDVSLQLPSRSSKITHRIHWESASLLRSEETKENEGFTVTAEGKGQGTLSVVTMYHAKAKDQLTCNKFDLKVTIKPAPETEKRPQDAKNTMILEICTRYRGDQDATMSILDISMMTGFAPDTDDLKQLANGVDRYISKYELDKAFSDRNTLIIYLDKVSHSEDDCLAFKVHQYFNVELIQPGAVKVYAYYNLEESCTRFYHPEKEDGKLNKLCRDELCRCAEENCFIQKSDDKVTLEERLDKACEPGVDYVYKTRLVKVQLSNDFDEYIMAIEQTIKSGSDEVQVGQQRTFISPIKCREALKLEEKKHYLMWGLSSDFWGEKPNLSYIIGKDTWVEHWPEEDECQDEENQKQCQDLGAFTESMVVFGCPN
UniProt P01024, sequence (P01024 23-667 limits assumed, chain 2 of 2): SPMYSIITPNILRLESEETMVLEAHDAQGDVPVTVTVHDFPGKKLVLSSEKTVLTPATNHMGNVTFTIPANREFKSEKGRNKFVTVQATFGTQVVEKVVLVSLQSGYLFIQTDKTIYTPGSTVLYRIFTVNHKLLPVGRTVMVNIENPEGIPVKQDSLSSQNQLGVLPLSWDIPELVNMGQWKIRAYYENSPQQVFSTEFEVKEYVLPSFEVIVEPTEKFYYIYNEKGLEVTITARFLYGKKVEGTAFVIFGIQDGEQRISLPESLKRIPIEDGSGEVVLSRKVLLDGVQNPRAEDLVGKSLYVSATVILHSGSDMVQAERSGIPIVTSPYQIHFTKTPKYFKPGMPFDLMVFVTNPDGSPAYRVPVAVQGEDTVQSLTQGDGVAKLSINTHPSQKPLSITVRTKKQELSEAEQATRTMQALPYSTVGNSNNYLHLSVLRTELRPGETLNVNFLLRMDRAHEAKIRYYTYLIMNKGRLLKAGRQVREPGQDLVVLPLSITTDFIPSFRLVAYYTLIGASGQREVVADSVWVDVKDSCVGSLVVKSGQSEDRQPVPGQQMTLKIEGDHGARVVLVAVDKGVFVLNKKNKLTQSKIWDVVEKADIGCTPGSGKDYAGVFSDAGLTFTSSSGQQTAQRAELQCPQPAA

FH^1-5∧18-20 (from UniProt P08603 19-322; P08603 1046-1231)
fluid phase Factor I cofactor activity: concentration of regulator at which the C3α′ band disappears (complete degradation of C3b), SDS-PAGE: 200 nM
